B1: 2K2A (parent)
chain: ELREAFRLYDKEGNGYISTDVMREILAELDETLSSEDLDAMIDEIDADGSGTVDFEEFMGVMT

Variants of: B1
Test: folding stability dG (cDNA display proteolysis); higher = more stable
Conditions: PBS, room temperature

Folding stability dG [kcal/mol]: each site, then its substitutions
T19: L 2.27 | Y 2.03 | H 1.01 | W 1.4 | K 1.67 | S 1.23 | E 0.025 | R 1.86 | I 2.29 | C 1.39 | F 2.18 | P 0.762 | D 0.211 | M 1.91 | V 2.04 | N 1.73 | A 1.32 | Q 0.688 | G 0.526
V21: M 2.06 | E 1.56 | F 1.41 | L 2.19 | H 1.77 | A 2.17 | K 2.04 | C 2 | D 1.95 | Q 2.36 | G 0.967 | N 1.74 | I 2.02
N14: D 1.3 | R 2.11 | Q 1.53 | Y 1.6 | V 2.07 | I 1.73 | C 1.43 | A 1.55 | S 1.5 | L 2.17 | E 0.908 | F 1.7 | K 2.09 | W 1.38 | T 1.74 | G 0.728 | P -0.347 | M 1.78 | H 1.63
G13: Q 1.26 | I 0.538 | H 1.15 | W 0.579 | D 1.41 | Y 0.607 | N 1.74 | V 0.792 | L 1.11 | K 1.14 | P -0.146 | M 1.23 | E 1.1 | A 1.05 | S 1.18 | C 1.5 | T 0.448 | F 0.932 | R 1.01
Y9: R 1.32 | E 0.654 | F 1.59 | M 1.43 | P 0.057 | K 0.775 | W 2 | D 0.261 | N 0.71 | V 0.891 | C 1.94 | I 1.31 | A 1.56 | G 0.24 | Q 0.85 | S 0.532 | L 2.07 | H 1.59 | T 0.17
S18: G 1.52 | W 0.742 | A 1.42 | Q 1.01 | T 2.02 | R 1.59 | M 1.25 | F 1.15 | K 1.24 | L 1.41 | H 1.54 | Y 1.32 | E 0.834 | V 0.765 | N 1.16 | P 1.58 | C 1.29 | D 0.936 | I 0.865
K11: N 1.4 | Q 1.72 | I 2.01 | C 2.07 | A 1.74 | L 2.13 | P 1.81 | E 1.36 | T 1.94 | G 1.03 | F 1.82 | R 1.71 | D 0.997 | W 1.88 | Y 1.63 | V 2.1 | S 1.74 | M 1.77 | H 1.69
R7: Q 1.96 | H 1.72 | F 1.61 | E 1.8 | K 2.12 | T 1.75 | P 0.375 | C 2.22 | I 1.93 | L 1.93 | A 2.09 | M 2.12 | N 2.06 | G 1.64 | V 1.62 | Y 1.67 | S 1.97 | W 1.76 | D 1.81
E12: K 1.13 | Q 1.56 | W 1.48 | N 1.52 | D 1.85 | V 1.19 | T 1.32 | M 1.53 | C 1.61 | L 1.55 | P 0.544 | G 1.16 | F 1.45 | S 1.34 | H 1.41 | I 1.1 | R 0.846 | Y 1.2 | A 1.57
D10: L 1.26 | Q 0.395 | W 1.4 | I 1.21 | Y 1.15 | C 2.18 | G 0.123 | M 1.39 | F 1.66 | T 0.563 | E 0.386 | H -0.087 | V 0.886 | A 0.874 | N -0.227 | S 0.55 | R -0.527
F6: I 0.623 | C 1.79 | W 2.18 | V 0.529 | P 0.281 | M 0.623 | S 0.268 | H 0.31 | G -0.227 | K 0.192 | T 0.266 | N 0.361 | Q 0.462 | L 0.489 | R 0.468 | D 0.525 | A 0.316 | Y 0.586 | E 0.086
Y16: K 1.19 | R 1.15 | E 0.315 | F 1.89 | I 0.893 | T 1.05 | N 0.623 | M 0.8 | Q 1.03 | G -0.095 | V 1.1 | A 0.729 | P -0.96 | S 1.03 | D -0.18 | L 0.96 | C 0.627 | H 1.21 | W 2.34
L8: H 2.01 | K 2.44 | N 1.85 | S 1.92 | E 1.52 | M 2.05 | R 2.38 | Y 1.98 | A 2.18 | W 1.83 | T 1.94 | G 1.73 | I 1.8 | Q 2.05 | D 0.997 | P 0.853 | F 2.1 | V 2.07
A5: G 1 | R 2.66 | W 2.97 | E 1.21 | Q 2.3 | I 2.78 | C 3.22 | M 2.91 | H 1.76 | L 3 | D 1.18 | T 2.14 | N 1.13 | P 0.29 | S 1.39 | V 2.6 | K 2.72 | Y 2.59 | F 2.74
I17: S -0.963 | R -0.847 | W 0.006 | K -0.854 | Y -0.493 | T -0.998 | L 1.36 | V 1.22 | F 0.818 | M 0.435 | C 0.277
R3: N 1.34 | T 1.44 | Y 2.48 | P 0.63 | Q 1.71 | S 1.42 | V 1.77 | W 2.29 | M 1.93
G15: T 0.259 | S 0.464 | I 0.513 | E 0.488 | N 0.741 | P 0.347 | V 0.459 | H 0.458 | W 0.821 | D 0.537 | A 0.588 | Y 0.571 | F 0.687 | Q 0.45 | L 0.841 | M 0.662 | R 0.333 | K 0.271 | C 1.1
E4: S 1.24 | R 1.6 | G 0.935 | L 1.53 | C 2.85 | Q 1.46 | A 1.77 | N 1.4 | D 2 | T 1.23 | H 1.36 | Y 1.43 | M 1.39 | P 0.889 | K 1.64 | W 1.41 | I 1.43 | V 1.39 | F 1.32
D20: S 2.26 | P 1.15 | T 2.25 | G 1.89 | M 2.25 | F 1.89 | R 2.23 | E 2.16 | I 2.03 | V 2.14 | C 1.9 | A 2.28 | L 2.35 | W 1.99 | K 2.4 | H 2.05 | Y 1.66 | Q 2.33 | N 2.04
